± gives the half width of the 95% confidence interval.
assay: folding stability dG unfold from trypsin proteolysis; higher = more stable
Outline: (§1)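 Unfolding free energy was derived, per protease or combined, against a sequence-predicted unfolded-state K50 and a shared folded-state K50, starting from K50 inferred by Bayesian fitting of sequencing counts. Digestion with trypsin and chymotrypsin was carried out on designed mini-proteins under 80 residues without cysteine in a PA-tagged cDNA display construct. Only designs with AlphaFold2 dimer inter-PAE above 15 were kept.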

Row | Sequence | folding stability dG unfold [kcal/mol]
1 | SAGGSAGGSAFTIHDLKLNKVEVHPDGTVTYHLEVTLPSGEKLKVVVLVDPRKPSLATFYFSSAGGSAGGSA [r18_97_TrMRF] | 2.31 ± 0.2
2 | SAGGKVFTPEHLEELLKNVPADDPNATLTVTVEVPVVVLPTTDGDDNPLPAAAAPATVTLPITVLPASAGGS [r16_708_TrMRF] | 0.0702 ± 0.072
3 | SAGGGSAWKVTAENLPADGYVKFPDGTTVPPGTELTVPLSAGYTDIRALDPEGNVVSVELVPLPEPKLSAGG [r13_441_JUSTAS] | -0.15 ± 0.14
4 | SAGGSAKKLPAEAVAKELAERLSKELGLTIKRVEVEVIDPEKGLVRVTVVYETPYGYLKREILLPVSAGGSA [r15_32_TrMRF] | 1.83 ± 0.026
5 | SAGAMVTHTITVKIDPSELDKLEEILEKIKNSGPVKAIEPVSFEPGTGVYTVKVTADPATIKLVEEALKSAG [r5_193_JUSTAS] | 4.51 ± 0.28
6 | SAGGSAGGSAGGMYFIRIKPPNGEELVILIPPGDEIKIKDADGRPWKITDVYPMPPEQFSAGGSAGGSAGGS [r10_422_TrROS] | -0.17 ± 0.27
7 | SAGGSAGGSAGGFTIKIETRPMPMFSKDGKPLAEMNMYRIKIEVPDMPPGLADKLIDLIQSAGGSAGGSAGG [r7_450_TrROS] | 1.66 ± 0.11
8 | SAGGSADYVFVRIEVRDPKNKQPMSIMIPVPPDMTPDEAIEEAEMIANTFKEKGLEITVEVEPMPPSAGGSA [r15_268_TrROS] | 1.44 ± 0.24
9 | SAGGSAGGSGSVEFETDLKDPNIRKAIEEALKEGKKTAVIPFPDGAEGRIVEVEGDKVRVEISSAGGSAGGS [r12_334_TrMRF] | 0.0322 ± 0.15
10 | SAGGSAGGSAGMEVILLEVDSEEEAEKLVKELSEKYGYPVKVEKDPENPKLVTLTIEKPKSAGGSAGGSAGG [r11_797_JUSTAS] | 1.41 ± 0.066
11 | SAGGSISIPVYSPEDVIEAIEFIERYLREKGFPENEEATRIIVERLEDGRYRVIIEYPTRTIIIDDSAGGSA [r2_120_TrMRF] | 2.9 ± 0.049
12 | SAGGSAGGSAGGSMTLKVTLTPPSGEVVEFEITEEELDKLKEELPEDWSISTEPIPELESAGGSAGGSAGGS [r4_63_JUSTAS] | 2.43 ± 0.07
13 | SAAKITEVDVEVGGDTITTTFRLEIDGKPYLAVTRLEPLTDPDGNPRFIAVTELYDEDGNLVATLPSDLSAG [r14_465_TrMRF] | 1.59 ± 0.032
14 | SAGFVMIKIELENPGNGKERELSIIIPYKSQEDARHIAEEIARELAKNGWKIKKIEVMVMPIPPPPDDPSAG [r5_660_TrROS] | 3.95 ± 0.12
15 | SAGGSAGGSAGGPEEPEKLTLRVTLTFYNPETQEPVEEVEVEITLTAEDLKEGKITITPSAGGSAGGSAGGS [r10_672_TrROS_Hall] | 1.54 ± 0.043
16 | SAGGSAGGSAAPTNPVEITLKRPDGTPVKATITFYPDGVKVTVEDGDTTTTSWLSPEEITLSAGGSAGGSAG [r3_373_JUSTAS] | 2.09 ± 0.037
17 | SAKIVVKLPEKPKVAVIEFPPGMTKEEILKALEEVPGLSEEEREALKKKIEELEALAKNPELLKKLEEESAG [r14_732_TrROS_Hall] | -0.378 ± 0.087
18 | SAGGSAGGEIRERLRELIEQLPEEELVVRIRRNGEEVELTFRTREDLEAALEANPEAEIEIVRRSAGGSAGG [r6_421_TrROS_Hall] | 2.02 ± 0.023
19 | MEVKIKVEIVKVEEVEVKKKKDGKEEKFIRIEIKIEVEAKPGLSEEEIKKLAEELAKKLKELGLEVEVKKES [r1_305_TrROS_Hall] | 0.993 ± 0.091
20 | SGMKSVTTPVSLTINTSPEEAEEFIEKLAKERGIEDVTVVKVTTDPATGTLTVEAELHTTIPPLPPPSSVSA [r9_918_JUSTAS] | 1.07 ± 0.044
21 | SAGGSAGGSMTIEEIKKLAEELGIEKVEIEKVKDGYYKIKIYNKKTGKKIEIIIKVNKDGKIVSAGGSAGGS [r12_170_TrROS_Hall] | 2.27 ± 0.17

assay: folding stability dG unfold (combined trypsin and chymotrypsin); higher = more stable
Outline: as §1

Row | Sequence | folding stability dG unfold [kcal/mol]
22 | SAGGMVFKTKDGYLVRIEVFNKETGEKTEILVPEENIEELLKALESKPGVTEVKVEIYKLKDGKPEKLSAGG [r13_914_TrROS_Hall] | 1.21 ± 0.095
23 | SAGGSAGGQEEEAEALAKEVEAPAREALPGTEVTVTVTVTRREDGSLEVDVTIEGDFALPAALLSAGGSAGG [r6_999_JUSTAS] | 0.783 ± 0.24
24 | SAGGSAGGSAGIDPPDIKLRVESELGPGPVRRLLVYLEGPGELVLVDVPADGSVSVSIFPSAGGSAGGSAGG [r11_55_TrMRF] | 2.9 ± 0.23
25 | SAGGSAGGKEFKIVKVEIEEREDGRLKIHITVEPGATPEEVKKALEELGFEVEEVEVVEVEEEESAGGSAGG [r6_543_TrROS_Hall] | 2.24 ± 0.092
26 | SAGGSAGGSAGGDEVLVFETETVELEVEVRTLNEDGEETTEKEKVTLTVTRVVRLPPGLLSAGGSAGGSAGG [r7_926_TrROS_Hall] | 0.959 ± 0.44
27 | SAGGSMAEPGPMNMTLSFDGIEKEFSVEITVRKRPDGTEVLELRLPDGVPLTLPAAEAAKIVDMSGSAGGSA [r2_297_JUSTAS] | 0.764 ± 0.051
28 | SAGGSAMLDNLVPVGSVTVVERFPDGLLRVVNYTFWRDPESGAWYVSADVEVFPLLPEDPVLLEAGSAGGSA [r15_207_TrMRF] | 3.6 ± 0.11
29 | SAGGSAGGSAGGSDVKIEVERGPNGYYTVTIELNGKPKIIPFPPGRPPEDAKDEIKDLLSAGGSAGGSAGGS [r4_7_TrROS] | 0.335 ± 0.12
30 | SAGGSAEEAEELARRLAAELQAETGLEVTVEVRYDEETDTVVIRMTVRDRATGEERTLELTLRLPDSAGGSA [r15_464_TrROS_Hall] | 3.51 ± 0.059
31 | SAGGVRYRNPLTGVEIPPDATEEERAAIARAVAKPVVLPVTVPVYVEEGDVVVPVERTFHVPLGPDGSAGGS [r16_387_TrMRF] | 0.206 ± 0.083

— the supplement of paper PMC12764529
